Reference: patent US6010856, “Assay systems and methods for measuring P38 map kinase, and modulators thereof” (The Scripps Research Institute)

Legend:
MEF2C = MEF2C (UniProt Q06413-3 Q06413-3:1-441); test: EMSA; complexes B1 and B2; conditions: tags: in vitro translated from MEF2C cDNA; label: 32P
Text: (§1) Members of the MEF2 family bind to conserved A/T-rich DNA sequences—CTA[A/T]_4TAG/A—found in the regulatory regions of many muscle-specific genes (Y. -T. Yu et al., Genes and Develop. 6, 1783 (1992). Binding of MEF2C to the consensus site can be detected by electrophoretic mobility-shift analysis (EMSA) (J. F. Martin et al., Proc. Natl. Acad. Sci. USA, 90, 5282 (1993); J. C. McDermott et al., Mol. Cell. Biol. 13, 2564 (1994); D. Leifer et al., Proc. Natl. Acad. Sci. USA 90, 11546 (1993)). To test whether the phosphorylation of MEF2C alters MEF2C binding to its consensus DNA binding site the mobility of the MEF2C-DNA probe complex formed by MEF2C before and after its treatment with wtp38 was compared (FIG. 3).
(§2) Binding of MEF2C to oligonucleotides containing the MEF2 consensus site determined by electrophoretic mobility-shift assay (EMSA). The oligonucleotide probe was double-stranded ^32P-labeled oligonucleotide containing the MEF2 consensus binding site (Oligonucleotides sequence, MEF2C: GATCGCT CTAAAAATAACCCTGTCG (SEQ ID NO: 1); MEF2Cmut: […] (SEQ ID NO: 2)) and the positions of free probe (F) and of bound probe (B_1 and B_2) are indicated by arrows. […]

[1] = target: MEF2C phosphorylated by p38 (UniProt Q06413-3 Q06413-3:1-441); test: EMSA; p38 phosphorylation did not reduce binding but decreased complex mobility; conditions: tags: in vitro translated then treated with recombinant p38; label: 32P
Chain of MEF2C phosphorylated by p38 (Q06413 other isoform, or with tags, fused parts or gaps): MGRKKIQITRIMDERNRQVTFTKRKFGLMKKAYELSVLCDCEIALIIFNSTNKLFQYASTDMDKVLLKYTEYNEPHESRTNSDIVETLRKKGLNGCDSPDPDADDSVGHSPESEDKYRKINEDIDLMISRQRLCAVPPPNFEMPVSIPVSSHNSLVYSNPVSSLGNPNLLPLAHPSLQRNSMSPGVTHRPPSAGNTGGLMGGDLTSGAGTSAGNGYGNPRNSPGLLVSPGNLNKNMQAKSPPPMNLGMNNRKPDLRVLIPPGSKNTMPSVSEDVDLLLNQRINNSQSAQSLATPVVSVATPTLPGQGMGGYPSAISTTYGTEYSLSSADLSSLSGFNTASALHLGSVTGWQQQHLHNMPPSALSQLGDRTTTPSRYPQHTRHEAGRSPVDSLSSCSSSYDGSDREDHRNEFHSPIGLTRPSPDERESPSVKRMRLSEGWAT
Text: as §1, §2

Chain of MEF2C (Q06413 other isoform, or with tags, fused parts or gaps): as above

B1: MEF2C consensus site probe (dsDNA)
DNA 1: GATCGCTCTAAAAATAACCCTGTCG
DNA 2: CGACAGGGTTATTTTTAGAGCGATC
B1: binds (MEF2C); binds [1].
